Laboratory results taken from patent US20160052996A1.

B1: NI-307.3G4 (antibody, V domains shown)
VH: QVQLVQSGAELKKPGAAVKVSCQASGYNFLSYGINWVRQIPGQGLQWLGWISTYDGTMNYDQKPDNRVTVTTDTSSSTVYLELRGLRSDDTGVYYCVRDRCAGAGCSHSLGYWGQGTLVTVSS
VL: DIQMTQSPSALSASVGDRVTISCRASQNINTQLNWYQEKPGKAPELLIYGAFNLQSGAPSTFSGSGSGTDFTLTITSLQPEDFASYYCQQGFHAPYTFGRGTKVDIK
B2: NI-307.43E8 (antibody, V domains shown)
VH: EVQLVESGGDVVQPGRSLRLSCAASGFAFSIYAMNWVRQAPGKGLEWVALISTSGTEHYADSVKGRFTISRDNSKNTLFLQINSLRVEDTAVYYCARDLDSTGYYENNYWGQGTLVTVSS
VL: DVVMTQSPLSSPVSLGQPASISCRSSHSLVHSNGDTYLSWLQQRPGQPPRLLIYKISNRFSGVPDRFSGSGAGTDFTLKISRVEAEDVGVYFCMQATSFPRTFGQGTKVEIK
B3: NI-307.25G10 (antibody, V domains shown)
VH: EVQLVESGGGLVQPGGSLRLSCVASGIIFKDYDFHWVRQVKEKGLEWVSAIGTAGDPYYAASVKGRFTVSRENGKNSVYLRMNNVGAGDTALYYCTSGNYFDRGSFRPSAFDMWGQGTMVTVSS
VL: EIVLTQSPGTLSLSPGERATLSCWASQSVSSNYLAWYQHKPGQAPRLLIFRASRRATDIPERFSAGGSGTDFTLTISRLEAEDSAVYYCQEYGSAPPASITFGQGTRLEIK
B4: NI-307.57D5 (antibody, V domains shown)
VH: EVQLVESGGGLAQPGGSLRLSCAGSGFTLSDFAMSWVRRAPGKGLEWVSSLTPSGRNSFYSDSVKGRFTISRDNWKNTLYLEMNLLRPEDTAVYYCARPGAPKNSDSKYSYVRVDFQHWGQGTLVTVSS
VL: NFMLTQPHSVSESPGRTVTISCTRSSGSIANNFVQWYQHRPGSAPTTLIYEDDQRPSGVPDRFSGSVDSFSNSASLTISGLKTEDEADYFCQSYDNHNWVFGGGTTLTVL
B5: NI-307.26E10 (antibody, V domains shown)
VH: EVQLVESGGGLVLPGGSLRLSCAVSGFTVRNEYMRWARQAPGRGLEWVSVIYRDGQTHHADTVKGRFDVSKDTSKNTMYLQMHNLRVDDTAIYYCARGHYGPWGQGTLVTVSS
VL: DIQMTQSPSTLPASVGDRVTITCRASQSINNWLAWYQQKPGKAPNLLIYDASNLETGVPSRFSGSGSGTEFTLTISSLQPDDFATYYCQQYNSHSHTWTFGQGTKVEIK
B6: NI-307.24C6 (antibody, V domains shown)
VH: QLQLQESGPGLVKPSGTLSLICVVSGSSIRSNIWWWNWVRQSPGKGLEWIGEIYHSGSTNYSPSLKSRVTMSVDNSKNQFSLKMSSVTAADTAVYFCAINTRTSISGVLYDTFDVWGQGTMVTVSS
VL: EIVLTQSPATLSLSSGERATLSCRASQSVSGYLAWYQQKPGQAPRLLIYDGSNRATGIPARFSGSGSGTDFTLTISSLEPEDFAVYYCQHRSNWPMYTFGQGTKLEIK
B7: NI-307.18E12 (antibody, V domains shown)
VH: QVQLQQWGAGLLKPSETLSLTCAVYGDSFSGFFWAWIRQTPGTGLEWIGEIQHGGSPTYNPSFESRLTISTDASKSQVSLKMTSVTVTDTAIYYCARCIRGKYGSGSLQLWSQGTLVTVSS
VL: DIQLTQSPSFLSASVGDRVTITCRASQDINYHLAWYRQKPGKAPDLLIHSAHTLHIGVSSRFSGSGSGTEFTLTIHTLQPEDFATYYCHQPKTFPPTFGGGTKVDIK
B8: NI-307.43A11 (antibody, V domains shown)
VH: QVQLQESGPGLVKPSGTLSLTCAVTGGSISSSNWWSWVRQSPGKGLEWIGEIHHDGNLNYNPLLKSRVSMSLDRSKNQFSLKLTSVTAADTAVYYCARWDFFFDSSYYIRGFDLWGQGTMVTVSS
VL: ETTLTQSPGTLSLSPGERVTLSCRASQSVDRNYLAWYQQKPGQSPRLLIYSASRRATGIPDRFSGSGSGTDFTLTISRLEPEDFVVYYCQQYGGSPPITFGQGTRLEIK
B9: NI-307.78C3 (antibody, V domains shown)
VH: QVQLQESGPGLVKPSGTLSLTCTVSGGSISGRIWWSWVRQPPGKGLEWIGEIYHSGSTNYSPSLRGRVTISVDTSKQHFSLKMTSVTAADTAMYYCVRGELALGFDSWGQGTLVTVSS
VL: QSALTQPPSASGSPGQSVTISCTGTSSDVGGYNSVSWYQQHPRRAPKLMIYEVSKRPSGVPDRFSGSKSGNTASLTVSGLQADDEAHYYCSSYAGSNNLVFGGGTMLTVL
B10: NI-307.24F3 (antibody, V domains shown)
VH: QVQLQESGGGVVQPGRSLRLSCAASGFSFNRYGMHWVRQAPGKGLEWLAVISNDGVNTHYADSVKGRFTISRDNSKSTLYLQASSLRVEDTAVYYCAGYYYGSGTSLFFYWGQGTLVTVSS
VL: EIVLTQSPDSLAVSLGERATINCKSSQTVLYSSNNQNYLAWYQQKPGQPPKLLLYWASTRESGVPDRFSGSGSGTDFTLTISSLQPEDVAVYYCQQYYTAPYTFGQGTKVEIK
B11: NI-307.6A2 (antibody, V domains shown)
VH: QVQLQESGPGLVKPSETLSLTCAVSGGSVSSSYWYSWVRQLPGKGLEWIGEIFHTGDTNYNPSLESRVTISIDTSKNQLSLDVTSATAADTAVYYCARDYCTDSGCDSDALDVWGHGTMVTVSS
VL: QSALTQPASVSGSPGQSITISCTGTTKDVGNYNLVSWYQQHPGKAPRLVIYEVSERPSGVSNRFSGSKSGNTASLTISGLQAEDEADYHCCSYAGSGTSVFGGGTKVTVL
B12: NI-307.19F10 (antibody, V domains shown)
VH: EVQLVESGGGLVQPGGSVSLSCAASGFTFPVYWMHWVRQAPEKGLMWVSRISPDGTIVDYAGSVKGRFTVSRDNAKNILYLQIQRLTAEDTAVYFCTKDFDVASGFWGQGTLVTVSS
VL: QSALTQPPSASGSPGQSVTISCTGSKSDVGTCHFVSWYQQHPGKVPKLVIYEGNKRPSGVPDRFSASKSGNTASLTISGLQPGDEADYYCSTCAGPNNYVFGTGTKVTVL
B13: NI-307.5H3 (antibody, V domains shown)
VH: QVQLQESGPGLLKPLGTLSLICDVSGDSISSSNWWSWVRQSPRKGLEWIGEIYHSGRTNYNPSLTNRVTISVDKSKNQFSLNLNSVTAADTGVYYCARWDYYYNNDYYIRGFDIWGQGTMVTVSS
VL: EIVLTQSPGILSLSPGERATLSCRASQSVDSNYLAWYQQKPGQAPRLLIYSTSTRAAGVPDRFSGSGSGTDFALTISGLEPEDFAVYYCQQWGGSPPITFGQGTRLEIK
B14: NI-307.1E1 (antibody, V domains shown)
VH: EVQLVESGGGLVKPGGSLRLSCAASGFIFSDAWMNWVRQAPGKGLEWVGHIKSRPAGGTTEYAAPVKGRFTISRDDSTDTLYLQMNNLKAEDTAVYYCSTGHYGVYGLGTLVTVSS
VL: DIQMTQSPSTLSASVGDRVTITCRASQSIRDYLAWYQQKPGKAPKLLIYDGSILEGGVPSRFSGSVSGTDFTLTISSLQSDDFATYYCQQYTSYSSWTFGQGTKVEIK

Experiments:
[1] = target: BKV VP1 (BK virus (BKV), AS strain) (UniProt P14996); assay: direct ELISA
Sequence of BKV VP1 (BK virus (BKV), AS strain) (P14996 whole entry): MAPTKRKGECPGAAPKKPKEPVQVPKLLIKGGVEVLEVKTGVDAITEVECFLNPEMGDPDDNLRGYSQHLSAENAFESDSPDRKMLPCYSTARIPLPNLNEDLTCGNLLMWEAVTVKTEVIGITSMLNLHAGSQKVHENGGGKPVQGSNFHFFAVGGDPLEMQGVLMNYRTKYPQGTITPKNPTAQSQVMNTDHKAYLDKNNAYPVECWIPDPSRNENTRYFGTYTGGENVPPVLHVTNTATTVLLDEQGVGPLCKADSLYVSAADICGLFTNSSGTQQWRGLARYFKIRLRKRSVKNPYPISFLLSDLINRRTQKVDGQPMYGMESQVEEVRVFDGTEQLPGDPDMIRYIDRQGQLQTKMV

[2] = target: BKV VP1 VLP (BK virus (BKV), AS strain) (UniProt P14996); assay: direct ELISA
Sequence of BKV VP1 VLP (BK virus (BKV), AS strain) (P14996 whole entry): as above

[3] = target: BKV VP1 (BK virus (BKV), AS strain) (UniProt P14996); assay: direct ELISA, plate coated with antigen at 5 µg/ml in carbonate buffer; EC50 by non-linear regression (GraphPad Prism)
[4] = target: BKV VP1 VLP (BK virus (BKV), AS strain) (UniProt P14996); assay: direct ELISA, plate coated with antigen at 5 µg/ml in reassociation buffer (VLP); EC50 by non-linear regression (GraphPad Prism)
[5] = target: JCV VP1 VLP (JC virus (JCV), Mad-1 strain) (UniProt P03089); assay: direct ELISA
Sequence of JCV VP1 VLP (JC virus (JCV), Mad-1 strain) (P03089 whole entry): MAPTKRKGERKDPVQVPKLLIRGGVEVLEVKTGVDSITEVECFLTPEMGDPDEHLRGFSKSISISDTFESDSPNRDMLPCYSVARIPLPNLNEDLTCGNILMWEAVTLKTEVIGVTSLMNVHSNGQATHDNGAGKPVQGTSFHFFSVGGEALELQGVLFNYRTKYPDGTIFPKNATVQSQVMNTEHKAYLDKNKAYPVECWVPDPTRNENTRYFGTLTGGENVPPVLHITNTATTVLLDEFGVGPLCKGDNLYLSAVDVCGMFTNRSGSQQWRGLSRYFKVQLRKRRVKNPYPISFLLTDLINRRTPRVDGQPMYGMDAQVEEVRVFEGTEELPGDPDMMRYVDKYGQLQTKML

Row | Binder | EC50 [1] [nM] | EC50 [2] [nM] | EC50 [3] [nM] | EC50 [4] [nM] | EC50 [5] [nM]
1 | B1 | 27.4 | 16.4 |  |  | 
2 | B2 |  |  | 0.34 | 0.38 | 
3 | B3 | 0.514 | 0.172 |  |  | 
4 | B4 | 37.5 | 104 |  |  | 
5 | B5 | 1.35 | 0.74 |  |  | 
6 | B6 | 0.816 | 0.396 |  |  | 
7 | B7 |  |  | 61.5 | 111 | 
8 | B8 | 9.7 | 10 |  |  | 
9 | B9 | 1.96 | 0.939 |  |  | 
10 | B10 | 1.04 | 28.8 |  |  | 
11 | B11 | 1.79 | 1.17 |  |  | 
12 | B12 | 2.41 | 1.1 |  |  | 
13 | B13 | 0.362 | 0.288 |  |  | 
14 | B14 | 6.05 | 11 |  |  | 281
